Data on four molecules can be found in US20140322218A1 (Amgen, published 2014).

Assay [1] deals with T1, Cyno Cadherin-19 (cynomolgus monkey (Macaca fascicularis), UniProt Q9H159 44-772 (human entry)).
T1 construct: also called cyno CDH19; cynomologous CDH-19
T1 chain: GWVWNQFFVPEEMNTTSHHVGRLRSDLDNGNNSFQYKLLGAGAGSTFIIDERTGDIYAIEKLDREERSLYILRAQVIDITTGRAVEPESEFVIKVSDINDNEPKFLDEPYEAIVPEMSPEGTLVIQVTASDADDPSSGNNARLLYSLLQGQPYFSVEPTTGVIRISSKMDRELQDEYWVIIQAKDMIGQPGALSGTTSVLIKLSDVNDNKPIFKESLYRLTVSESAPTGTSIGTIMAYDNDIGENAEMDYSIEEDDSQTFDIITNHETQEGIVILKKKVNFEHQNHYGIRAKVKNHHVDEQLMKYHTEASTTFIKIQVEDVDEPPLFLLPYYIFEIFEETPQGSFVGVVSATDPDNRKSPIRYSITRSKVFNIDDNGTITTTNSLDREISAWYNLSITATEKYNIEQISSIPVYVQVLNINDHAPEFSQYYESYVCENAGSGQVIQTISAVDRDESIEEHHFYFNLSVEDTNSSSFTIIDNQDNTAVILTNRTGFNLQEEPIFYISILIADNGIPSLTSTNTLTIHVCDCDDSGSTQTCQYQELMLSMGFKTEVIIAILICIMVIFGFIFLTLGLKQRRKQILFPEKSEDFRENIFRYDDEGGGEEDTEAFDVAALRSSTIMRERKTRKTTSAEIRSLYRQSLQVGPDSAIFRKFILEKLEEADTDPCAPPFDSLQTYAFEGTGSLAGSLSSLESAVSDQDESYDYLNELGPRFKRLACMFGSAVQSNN
Description: FACS, recombinant cyno CDH19.

In assay [2] the target is T2, Human Cadherin-19 (human, UniProt Q9H159 44-772).
T2 construct: Residues 1-43 are named as the native leader in the construct designations and are left out; also called human CDH19; huCDH19
As to the kind of experiment: FACS, endogenous and recombinant human CDH19.
Description: FACS binding assays were performed to evaluate the binding of the anti-Cadherin-19 receptor specific antibodies to endogenous Cadherin-19 receptor expressed on the CHL-1 tumor cell lines.
FACs assays were performed by incubating hybridoma supernatants with 10,000 to 25,000 cells in PBS/2% Fetal bovine serum/2 mM Calcium Chloride at 4° C. for one hour followed by two washes with PBS/2% Fetal bovine serum/2 mM Calcium Chloride. Cells were then treated with florochrome-labeled secondary antibodies at 4° C. followed by one wash. The cells were resuspended in 50 μl of PBS/2% FBS and antibody binding was analyzed using a FACSCalibur™ instrument.

Assay [3] has as its target T3, muCDH19(44-139)::huCDH19(142-364)::muCDH19(363-770), Flag-tagged, on 293T cells (human/mouse chimera).
T3 construct: also called Hu EC2-3; C137847
Description: FACS, transfected 293T.
Description: (§1) The experiment included assaying the anti-CDH19 antibodies against mouse Cadherin19 to determine suitability for binning on these human/mouse chimeras.

Assay [4] addresses T4, huCDH19(44-772), Flag-tagged, on 293T cells (human, UniProt Q9H159 44-772).
T4 construct: Expressed with native leader (1-43) followed by a Flag tag; leader left out; also called Hu EC1-5
As to the kind of experiment: FACS, transfected 293T. (In flow cytometry, cells or beads pass a laser one at a time.)
Description: as §1

Assay [5] deals with T5, muCDH19(44-247)::huCDH19(250-364)::muCDH19(363-770), Flag-tagged, on 293T cells (human/mouse chimera).
T5 construct: also called Hu EC3; C137911
Description: FACS, transfected 293T.
Description: as §1

For assay [6], the target named is T6, huCDH19(1-43)::FLAG::hu(44-141)::ckCDH19(142-776), on 293T cells (human/chicken chimera).
T6 construct: Entry holds leader (1-43), Flag tag and CDH19 part; leader left out; also called Hu EC1 (chicken backbone)
As to the kind of experiment: FACS, transfected 293T.
Description: (§2) The following binding assay was completed in presence of 2 mM CaCl2. […] Cells were then washed one time and the amount of cell associated Alexa647-labelled Ab was quantitated by flow cytometry. The experiments included mock transfected controls.

Assay [7] addresses T7, (1-43)::FLAG::ckCDH19(44-468)::huCDH19(464-772), on 293T cells (human/chicken chimera).
T7 construct: Entry holds leader (1-43), Flag tag and CDH19 part; leader left out; also called Hu EC5 (chicken backbone)
T7 chain: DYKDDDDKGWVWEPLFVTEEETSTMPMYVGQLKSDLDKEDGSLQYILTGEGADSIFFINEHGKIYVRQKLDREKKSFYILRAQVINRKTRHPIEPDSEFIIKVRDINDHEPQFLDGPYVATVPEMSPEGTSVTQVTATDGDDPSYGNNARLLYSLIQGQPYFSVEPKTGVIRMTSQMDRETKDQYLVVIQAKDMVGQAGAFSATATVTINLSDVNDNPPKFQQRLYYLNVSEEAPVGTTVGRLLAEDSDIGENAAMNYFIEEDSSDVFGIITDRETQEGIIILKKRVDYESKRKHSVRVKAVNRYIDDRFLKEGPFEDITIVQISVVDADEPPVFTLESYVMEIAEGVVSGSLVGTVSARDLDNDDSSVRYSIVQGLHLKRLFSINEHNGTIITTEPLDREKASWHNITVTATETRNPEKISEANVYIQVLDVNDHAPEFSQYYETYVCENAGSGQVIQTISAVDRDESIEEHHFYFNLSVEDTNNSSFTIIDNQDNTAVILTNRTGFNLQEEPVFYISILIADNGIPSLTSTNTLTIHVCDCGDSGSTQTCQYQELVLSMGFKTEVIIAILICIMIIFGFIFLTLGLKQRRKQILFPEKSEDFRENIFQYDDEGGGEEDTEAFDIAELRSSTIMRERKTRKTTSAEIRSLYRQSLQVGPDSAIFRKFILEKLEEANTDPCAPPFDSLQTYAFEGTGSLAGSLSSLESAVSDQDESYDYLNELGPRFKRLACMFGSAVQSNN
As to the kind of experiment: FACS, transfected 293T.
Description: as §2

In assay [8] the target is T8, ckCDH19(1-43)::FLAG::ckCDH19(44-141)::huCDH19(142-249)::ckCDH19(250-776), on 293T cells (human/chicken chimera).
T8 construct: Entry holds leader (1-43), Flag tag and CDH19 part; leader left out; also called Hu EC2 (chicken backbone)
T8 chain: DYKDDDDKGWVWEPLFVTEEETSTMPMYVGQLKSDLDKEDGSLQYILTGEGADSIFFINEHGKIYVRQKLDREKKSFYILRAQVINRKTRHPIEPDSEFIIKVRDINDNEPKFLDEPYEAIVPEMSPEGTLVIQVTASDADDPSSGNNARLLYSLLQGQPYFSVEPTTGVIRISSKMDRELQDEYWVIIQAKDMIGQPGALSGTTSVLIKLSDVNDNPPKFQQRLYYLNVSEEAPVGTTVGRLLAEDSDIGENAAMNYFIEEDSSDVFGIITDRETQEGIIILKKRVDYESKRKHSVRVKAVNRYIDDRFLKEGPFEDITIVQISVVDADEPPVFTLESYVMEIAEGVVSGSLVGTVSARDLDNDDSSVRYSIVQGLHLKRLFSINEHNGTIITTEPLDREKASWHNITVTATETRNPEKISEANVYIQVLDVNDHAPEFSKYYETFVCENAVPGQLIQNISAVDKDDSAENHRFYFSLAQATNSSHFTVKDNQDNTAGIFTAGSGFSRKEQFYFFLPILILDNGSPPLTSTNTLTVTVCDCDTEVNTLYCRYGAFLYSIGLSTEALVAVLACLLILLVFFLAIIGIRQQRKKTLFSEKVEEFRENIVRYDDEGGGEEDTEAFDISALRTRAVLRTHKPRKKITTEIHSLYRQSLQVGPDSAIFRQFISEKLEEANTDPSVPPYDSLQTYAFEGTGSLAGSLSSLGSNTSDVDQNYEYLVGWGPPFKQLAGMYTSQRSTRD
As to the kind of experiment: FACS, transfected 293T.
Description: as §2

Assay [9] has as its target T9, ckCDH19(1-43)::FLAG::ckCDH19(44-776), on 293T cells (chicken).
T9 construct: Entry holds leader (1-43), Flag tag and CDH19 part; leader left out; also called Ck EC1-5
T9 chain: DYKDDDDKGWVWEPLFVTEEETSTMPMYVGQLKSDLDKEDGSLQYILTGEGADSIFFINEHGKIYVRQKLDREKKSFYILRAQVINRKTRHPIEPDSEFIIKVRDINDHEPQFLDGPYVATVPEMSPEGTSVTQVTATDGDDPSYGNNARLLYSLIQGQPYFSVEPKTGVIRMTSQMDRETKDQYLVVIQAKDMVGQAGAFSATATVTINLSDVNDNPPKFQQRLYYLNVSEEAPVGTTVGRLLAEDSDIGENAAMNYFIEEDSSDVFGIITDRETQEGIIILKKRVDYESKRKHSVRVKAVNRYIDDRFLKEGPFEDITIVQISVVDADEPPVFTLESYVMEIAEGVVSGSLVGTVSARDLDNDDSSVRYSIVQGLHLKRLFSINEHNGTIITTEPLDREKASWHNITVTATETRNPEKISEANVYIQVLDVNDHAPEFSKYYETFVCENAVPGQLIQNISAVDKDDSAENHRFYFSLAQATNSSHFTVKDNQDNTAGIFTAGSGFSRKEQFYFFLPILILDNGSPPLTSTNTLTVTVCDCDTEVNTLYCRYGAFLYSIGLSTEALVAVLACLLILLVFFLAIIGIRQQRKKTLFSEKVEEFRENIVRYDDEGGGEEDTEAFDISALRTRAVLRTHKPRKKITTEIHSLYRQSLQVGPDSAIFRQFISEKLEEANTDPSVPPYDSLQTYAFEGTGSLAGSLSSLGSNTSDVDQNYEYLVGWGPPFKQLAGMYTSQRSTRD
Description: FACS, transfected 293T.
Description: as §2

In assay [10] the target is T10, muCDH19(44-770), Flag-tagged, on 293T cells (mouse).
T10 construct: also called Mu EC1-5
T10 chain: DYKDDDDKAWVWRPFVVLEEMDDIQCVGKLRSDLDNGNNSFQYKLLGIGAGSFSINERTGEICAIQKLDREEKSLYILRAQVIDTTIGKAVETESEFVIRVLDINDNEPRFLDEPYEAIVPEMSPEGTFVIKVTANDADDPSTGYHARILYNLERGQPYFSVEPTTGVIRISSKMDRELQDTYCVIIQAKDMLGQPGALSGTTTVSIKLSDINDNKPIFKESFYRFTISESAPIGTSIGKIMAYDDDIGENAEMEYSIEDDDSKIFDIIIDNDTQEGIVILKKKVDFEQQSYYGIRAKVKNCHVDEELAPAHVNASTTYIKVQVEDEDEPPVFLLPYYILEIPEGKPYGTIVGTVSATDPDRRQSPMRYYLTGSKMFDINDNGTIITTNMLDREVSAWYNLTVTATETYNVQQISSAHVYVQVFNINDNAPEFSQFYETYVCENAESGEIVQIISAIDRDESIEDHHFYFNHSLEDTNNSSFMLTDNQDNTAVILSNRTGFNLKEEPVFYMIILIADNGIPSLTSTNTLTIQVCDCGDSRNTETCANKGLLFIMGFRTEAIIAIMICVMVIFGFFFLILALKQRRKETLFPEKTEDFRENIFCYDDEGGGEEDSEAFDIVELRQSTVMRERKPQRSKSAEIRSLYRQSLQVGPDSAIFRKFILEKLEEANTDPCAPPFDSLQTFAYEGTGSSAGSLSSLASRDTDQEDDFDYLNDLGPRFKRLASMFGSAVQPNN
As to the kind of experiment: FACS, transfected 293T.

B1: anti-CDH19 antibody 23A10 (Ab ID 13884) (antibody, human IgG1, lambda, V domains shown)
VH: QVQLVESGGGVVQPGRSLRLSCAASGFTFSRYGIHWVRQAPGKGLEWVAVIWYDGSNKYYADSVKGRFTISRDNSKNTLYLLMNSLRAEDSAVYYCARRAGIPGTTGYYYGMDVWGQGTTVTVSS
VL: SYELTQPPSVSVSPGQTASITCSGDRLGEKYVCWYQQKPGQSPILVIYQDNKWPSGIPERFSGSNSGNTATLTISGTQAMDEADYYCQAWDSSTVVFGGGTKLTVLG
For B1, the binding result in [1] and in assay [2] was “binds” each time.

B2: hu anti-<huCDH19> 4B10 (1-471)(R17G) VH::huIgG1z / 4B10 (1-236)(H45Q,A90T) VL::huKLC (Ab ID 14054) (antibody, V domains shown)
VH: QVQLVESGGGVVQPGGSLRLSCAASGFTFSSYDMHWVRQAPGKGLEWVAVISYDGTNEYYADSVKGRFTISRDTSKNTLYLQMNSLRAEDTAVYYCARERYFDWSFDYWGQGTLVSVSS
VL: EIVLTQSPGTLSLSPGERATLSCRASQSVSNTYLAWYQQRPGQAPRLLIYGASSRATGIPDRFSGSGSGTDFTLTISSLEPEDFAVYYCQQYSNSWTFGQGTKVEIKR
notes: Engineered variant of 4B10
Regarding B2, the binding result in [3], in [4] and in assay [5] was “binds” in each case.

B3: hu anti-<huCDH19> 26F12.1 VH::huIgG1z / 26F12.1 VL::huLLC-C2 (Ab ID 13881) (antibody, V domains shown)
VH: QVQLVQSGAEVKKPGASVKVSCKASRYTFTNYYMSWVRQAPGQGLEWMGIINPSGGDSTYAQKFQGRLTMTGDTSTSTVYMELSSLRSEDTAVYYCARGGIQLWLHFDYWGQGTLVTVSS
VL: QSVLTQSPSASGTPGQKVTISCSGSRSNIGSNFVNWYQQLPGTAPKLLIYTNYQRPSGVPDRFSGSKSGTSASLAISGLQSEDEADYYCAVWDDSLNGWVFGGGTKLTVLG
notes: also called 27B3
Turning to B3, the binding result in assay [6] is on record as “binds”; in assay [7], “no binding (tested: 5 ug/ml)”; in assay [8] it was “no binding (tested: 5 ug/ml)”; in assay [9] it was “no binding (tested: 5 ug/ml)”; in assay [10], “no binding (tested: 5 ug/ml)”.

B4: hu anti-<huCDH19> 4A2 (1-472)(Q17E,H47P) VH::huIgG1z / 4A2 (1-236)(N30Q,T102A) VL::huKLC (Ab ID 14026) (antibody, V domains shown)
VH: QVQLQESGPGLVKPSETLSLTCTVSGGSISSSGYYWSWIRQPPGKGLEWIGYIYYTGSAYYNPSLKSRVTISVDTSKNQFSLKLSSVTAADTAVYYCARDGSSGWYFQYWGQGTLVTVSS
VL: EIVLTQSPGTLSLSPGERATLSCRASRQISSSYLAWYQQKPGQAPRLLIYGPSSRATGIPDRFSGSGSGTDFTLTISRLEPEDFAVYYCQQYGSSFTFGPGTKVDIKR
notes: Engineered variant of 4A2
For B4, the binding result in assay [3], in assay [4] and in assay [5] was “binds” in each case.
